Measurements published in article PMC5099943, “Recombinant L-asparaginase 1 from Saccharomyces cerevisiae: an allosteric enzyme with antineoplastic activity” (Scientific Reports, 2016).

Columns and labels:
purified protein [1] = substrate: NC(=O)C[C@H](N)C(=O)O; assay: purified protein; type: biochemical, Saccharomyces cerevisiae; conditions: 50 mM Tris-HCl pH 8.0, 37 °C, no L-glutamine, sigmoidal, nH 2.2 ± 0.3
purified protein [2] = substrate: NC(=O)C[C@H](N)C(=O)O; assay: purified protein; conditions: 50 mM Tris-HCl pH 8.0, 37 °C, nH 1.1 ± 0.1

Protein | K0.5 (purified protein [1]) | Vmax (purified protein [1]) | kcat (purified protein [1]) | Km (purified protein [2]) | Vmax (purified protein [2]) | kcat (purified protein [2]) | kcat/Km (purified protein [2])
ScASNase1 (L-asparaginase 1) (Saccharomyces cerevisiae S288C) (protein) LPRIKILGTGGTIASKAIDSSQTAGYHVDLTIQDLLDAIPDISKVCDIEYEQLCNVDSKDINEDILYKIYKGVSESLQAFDGIVITHGTDTLSETAFFIESTIDAGDVPIVFVGSMRPSTSVSADGPMNLYQAICIASNPKSRGRGVLVSLNDQISSGYYITKTNANSLDSFNVRQGYLGNFVNNEIHYYYPPVKPQGCHKFKLRVDGKHFKLPEVCILYAHQAFPPAIVNLVADKYDGIVLATMGAGSLPEEVNETCMKLSLPIVYSKRSMDGMVPIANVPKKGSKEDNLIASGYLSPEKSRILLQLCLAGNYTLEEIKHVFTGVYGG | 75 ± 27 µM | 0.042 µmol/min | 217 ± 14 s⁻¹ |  |  |  | 
EcASNase2 (L-ASNase type II from Escherichia coli, commercial) (Escherichia coli K-12) (protein) LPNITILATGGTIAGGGDSATKSNYTVGKVGVENLVNAVPQLKDIANVKGEQVVNIGSQDMNDNVWLTLAKKINTDCDKTDGFVITHGTDTMEETAYFLDLTVKCDKPVVMVGAMRPSTSMSADGPFNLYNAVVTAADKASANRGVLVVMNDTVLDGRDVTKTNTTDVATFKSVNYGPLGYIHNGKIDYQRTPARKHTSDTPFDVSKLNELPKVGIVYNYANASDLPAKALVDAGYDGIVSAGVGNGNLYKSVFDTLATAAKTGTAVVRSSRVPTGATTQDAEVDDAKYGFVASGTLNPQKARVLLQLALTQTKDPQQIQQIFNQY |  |  |  | 23 ± 5 µM | 0.032 µmol/min | 134 s⁻¹ | 5.8e+06 M⁻¹ s⁻¹
